The assay concerns the target soybean alpha-SNAP from the Rhg1 locus, full length, with C-terminal six-histidine tag (soybean (Glycine max)). The assay is described as follows: gel filtration (Superdex 75); HgSLP-1 alone eluted at fraction 23, albumin standard (67 kDa) at fraction 12, chymotrypsinogen A (25 kDa) at fraction 30.

Substance “Heterodera glycines SNARE-like protein 1 (HgSLP-1), full length, expressed in E. coli” came in with an elution fraction of HgSLP-1 in gel filtration of 15.
